According to patent US12692524B2, “Sialyltransferases and their use in producing sialylated oligosaccharides” (Chr. Hansen A/S, priority 2017, dated 2026):

B1: SiaT3: sialyltransferase of Campylobacter jejuni strain OH4384, acc. AX934425, SEQ ID NO: 12 (protein, listed as Campylobacter jejuni)
chain: MGKKVIIAGNGPSLKEIDYSRLPNDFDVFRCNQFYFEDKYYLGKKCKAVFYNPILFFEQYYTLKHLIQNQEYETELIMCSNYNQAHLENENFVKTFYDYFPDAHLGYDFFKQLKDFNAYFKFHEIYFNQRITSGVYMCAVAIALGYKEIYLSGIDFYQNGSSYAFDTKQKNLLKLAPNFKNDNSHYIGHSKNTDIKALEFLEKTYKIKLYCLCPNSLLANFIELAPNLNSNFIIQEKNNYTKDILIPSSEAYGKFSKNIN
B2: SiaT4: sialyltransferase of Helicobacter acinonychis, acc. NC_008229, SEQ ID NO: 11 (protein, listed as Heliobacter acinonychis)
chain: MNKKPLIIAGNGPSIKDLDYALFPKDFDVFRCNQFYFEDKYYLGREIKGVFFNAHVFDLQMKITKAIVKNGEYHPDHIYCTHVEPYGYVNGNQQLMQEYLEKHFVGVRSTYAYLKDLEPFFILHSKYRNFYDQHFTTGIMMLLVAIQLGYKEIYLCGIDFYENGFGHFYENQGGFFEEDSDPMHDKNIDIQALELAKKYAKIYALVPNSALVKMIPLSSQKGVLEKVKDRIGLGEFKREKFGQKELERQKELERQKELERQKELERQKELERQKELERQKELERQKELERQKELERQKELERQKELERQKELERQKELERQKELERQKELERQKELELERSLKARLKAVLASKGIRGDNLIIVSLKDTYRLFKGGFALLLDLKALKSIIKAFLKR
B3: SiaT1: sialyltransferase of Neisseria meningitidis, acc. U60660, SEQ ID NO: 5 (protein, listed as Neisseria meningitidis)
chain: MGLKKACLTVLCLIVFCFGIFYTFDRVNQGERNAVSLLKEKLFNEEGEPVNLIFCYTILQMKVAERIMAQHPGERFYVVLMSENRNEKYDYYFNQIKDKAERAYFFHLPYGLNKSFNFIPTMAELKVKSMLLPKVKRIYLASLEKVSIAAFLSTYPDAEIKTFDDGTGNLIQSSSYLGDEFSVNGTIKRNFARMMIGDWSIAKTRNASDEHYTIFKGLKNIMDDGRRKMTYLPLFDASELKTGDETGGTVRILLGSPDKEMKEISEKAAKNFKIQYVAPHPRQTYGLSGVTTLNSPYVIEDYILREIKKNPHTRYEIYTFFSGAALTMKDFPNVHVYALKPASLPEDYWLKPVYALFTQSGIPILTFDDKN
B4: SiaT5: sialyltransferase of Helicobacter acinonychis, acc. NC_008229, SEQ ID NO: 33 (protein, listed as Heliobacter acinonychis)
chain: MGTIKKPLIIAGNGPSIKDLDYALFPKDFDVFRCNQFYFEDKYYLGREIKGVFFNPCVLSSQMQTVQYLMDNGEYSIERFFCSVSTDRHDFDGDYQTILPVDGYLKAHYPFVCDTFSLFKGHEEILKHVKYHLKTYSKELSAGVLMLLSAVVLGYKEIYLVGIDFGASSWGHFYDESQSQHFSNHMADCHNIYYDMLTICLCQKYAKLYALAPNSPLSHLLTLNPQAKYPFELLDKPIGYTSDLIISSPLEEKLLEFKNIEEKLLEFKNIEEKLLEFKNIEEKLLEFKNIEEKLLEFKNIEEKLLEFKNIEEKLLEFKNIEEKLLEFKNIEEKLLEFKNIEEKLLEFKNIEEKLLEFKNIEEKLLEFKNIEEKLLEFKNIEEKLLASRLNNILRKIKRKILPFFWGGGVTPTLKVSFRWGAA
B5: SiaT7: sialyltransferase of Pasteurella dagmatis strain DSM 22969, acc. AFY98851, SEQ ID NO: 7 (protein, listed as Pasteurella dagmatis)
chain: MTIYLDPASLPTLNQLMHFTKESEDKETARIFGFSRFKLPEKITEQYNNIHFVEIKNNRPTEDIFTILDQYPEKLELDLHLNIAHSIQLFHPILQYRFKHPDRISIKSLNLYDDGTMEYVDLEKEENKDIKSAIKKAEKQLSDYLLTGKINFDNPTLARYVWQSQYPVKYHFLSTEYFEKAEFLQPLKTYLAGKYQKMDWSAYEKLSPEQQTFYLKLVGFSDETKQLFHTEQTKFIFTGTTTWEGNTDIREYYAKQQLNLLKHFTHSEGDLFIGDQYKIYFKGHPRGGDINDYILKHAKDITNIPANISFEILMMTGLLPDKVGGVASSLYFSLPKEKISHIIFTSNKKIKNKEDALNDPYVRVMLRLGMIDKSQIIFWDSLKQL
B6: SiaT11: sialyltransferase of Photobacterium damselae JT0160, acc. BAA25316, SEQ ID NO: 31 (protein, listed as Photobacterium damsela)
chain: MKKILTVLSIFILSACNSDNTSLKETVSSNSADVVETETYQLTPIDAPSSFLSHSWEQTCGTPILNESDKQAISFDFVAPELKQDEKYCFTFKGITGDHRYITNTTLTVVAPTLEVYIDHASLPSLQQLIHIIQAKDEYPSNQRFVSWKRVTVDADNANKLNIHTYPLKGNNTSPEMVAAIDEYAQSKNRLNIEFYTNTAHVFNNLPPIIQPLYNNEKVKISHISLYDDGSSEYVSLYQWKDTPNKIETLEGEVSLLANYLAGTSPDAPKGMGNRYNWHKLYDTDYYFLREDYLDVEANLHDLRDYLGSSAKQMPWDEFAKLSDSQQTLFLDIVGFDKEQLQQQYSQSPLPNFIFTGTTTWAGGETKEYYAQQQVNVINNAINETSPYYLGKDYDLFFKGHPAGGVINDIILGSFPDMINIPAKISFEVLMMTDMLPDTVAGIASSLYFTIPADKVNFIVFTSSDTITDREEALKSPLVQVMLTLGIVKEKDVLFWADHKVNSMEVAIDEACTRIIAKRQPTASDLRLVIAIIKTITDLERIGDVAESIAKVALESFSNKQYNLLVSLESLGQHTVRMLHEVLDAFARMDVKAAIEVYQEDDRIDQEYESIVRQLMAHMMEDPSSIPNVMKVMWAARSIERVGDRCQNICEYIIYFVKGKDVRHTKPDDFGTMLD

Legend:
[1] = In vitro sialylation of LNT by protein extracts, LST-a/-b quantified by LC-MS/MS; assay type: biochemical; details: for Relative efficacy of sialyltransferases regarding in-vitro production of sialyllacto-N-tetraoses: LST-a / Relative efficacy of sialyltransferases regarding in-vitro production of sialyllacto-N-tetraoses: LST-b: 5 mM LNT, 10 mM CMP-Neu5Ac, 16 hours, LC-MS/MS, relative quantity, n.d.: not detectable
Method: Escherichia coli BL21(DE3) harbouring plamids encoding for 100 sialyltransferases were grown at 30° C. in 100 ml shake flasks filled with 20 ml of 2YT medium supplemented with ampicillin 100 μg ml^−1. When the cultures reached an OD600 of 0.1 to 0.3, gene expression was induced by addition of 0.3 mM IPTG and the incubation was continued for 12 to 16 hours. Cells were harvested by centrifugation and mechanically disrupted in a defined volume of 50 mM Tris-HCl pH7.5 using glass beads. The protein extract was kept on ice until the assay started. The in vitro assay was carried out in a total volume of 25 μl including 50 mM Tris-HCl pH7.5, 5 mM MgCl2, 10 mM CMP-Neu5Ac and 5 mM LNT. The assay started with the addition of 3 μl protein extract and continued for 16 hours. Product formation was determined by mass spectrometry.
Mass spectrometry analysis was performed by MRM (multiple reaction monitoring) using a LC Triple-Quadrupole MS detection system. Precursor ions are selected and analyzed in quadrupole 1, fragmentation takes place in the collision cell using argon as CID gas, selection of fragment ions is performed in quadrupole 3. Chromatographic separation of lactose, 3′-Sialyllactose and 6′-Sialyllactose after dilution of culture supernatant 1:100 with H2O (LC/MS Grade), was performed on a XBridge Amide HPLC column (3.5 μm, 2.1×50 mm (Waters, USA) with a XBridge Amide guard cartridge (3.5 μm, 2.1×10 mm) (Waters, USA). Column oven temperature of the HPLC system was 50° C. The mobile phase was composed of acetonitrile:H2O with 10 mM ammonium acetate. A 1 μl sample was injected into the instrument; the run was performed for 3.60 min with a flow rate of 400 μl/min. 3′-Sialyllactose and 6′-Sialyllactose were analyzed by MRM in ESI positive ionization mode. The mass spectrometer was operated at unit resolution. Sialyllactose forms an ion of m/z 656.2 [M+Na]. The precursor ion of Sialyllactose was further fragmented in the collision cell into the fragment ions m/z 612.15, m/z 365.15 and m/z 314.15. Collision energy, Q1 and Q3 Pre Bias were optimized for each analyte individually. Chromatographic separation of lactose, LNT-II, LNT and LST-a or -b after dilution of particle-free biocatalysis-reaction or crude extract, respectively, 1:50 with H2O (LC/MS Grade), was performed on a XBridge Amide HPLC column (3.5 μm, 2.1×50 mm (Waters, USA) with a XBridge Amide guard cartridge (3.5 μm, 2.1×10 mm) (Waters, USA). Column oven was run at 35° C. The mobile phase was composed of acetonitrile:H2O with 0.1% ammonium hydroxide. A 1 μl sample was injected into the instrument; the run was performed for 3.50 min with a flow rate of 300 μl/min. Lactose, LNT-II, LNT as well as LST-a and -b were analyzed by MRM in ESI negative ionization mode. The mass spectrometer was operated at unit resolution. Lactose forms an ion of m/z 341.00 [M−H]. The precursor ion of Lactose was further fragmented in the collision cell into the fragment ions m/z 179.15, m/z 161.15 and m/z 101.05. LNT-II forms an ion of m/z 544.20 [M−H]. The precursor ion of LNT-II was further fragmented into the fragment ions m/z 382.10, m/z 161.00 and m/z 112.90. LNT forms an ion of m/z 706.20 [M−H]. The precursor ion of LNT was further fragmented into the fragment ions m/z 382.10, m/z 202.10 and m/z 142.00. LST-a and -b forms an ion of m/z 997.20 [M−H]. The precursor ion of LST-a and-b was further fragmented into the fragment ions m/z 290.15, m/z 202.15 and m/z 142.15. Collision energy, Q1 and Q3 Pre Bias were optimized for each analyte individually. Quantification methods were established using commercially available standards (Carbosynth, Compton, UK).
Twenty eight genes were identified to produce LST-a whereas only 6 enzymes synthesized LST-b. […] Irrespectively of the protein overexpression level, sialyltransferases that produced best were selected for determination of Km and Vmax.

[2] = In vivo screening in E. coli #1363/#1730 with lactose as acceptor, sialyllactose identified by TLC; assay type: cell-based, Escherichia coli BL21(DE3); details: for Described activity confirmed in the lactose screening: in words
Method: Escherichia coli BL21(DE3) #1363 and #1730 harbouring plasmids encoding for 100 sialyltransferases were grown at 30° C. in 100 ml shake flasks filled with 20 ml of mineral salts medium (Samain et al., J. Biotech. 1999, 72:33-47) supplemented with 2% (wt/vol) glucose, ampicillin 100 μg ml^−1, kanamycin 15 μg ml^−1 and zeocin 40 μg ml^−1. When the cultures reached an OD600 of 0.1 to 0.3, gene expression was induced by addition of 0.3 mM IPTG. After an incubation for one hour, 1.5 mM lactose was added to #1363 cultures whereas 1.5 mM lactose as well as 1.5 mM sialic acid was added to #1730 cultures. The incubation continued for 72 to 96 hours. Then, cells were harvested by centrifugation and mechanically disrupted in a defined volume using glass beads. Subsequently, samples were applied to thin layer chromatography (TLC) on Silica Gel 60 F254 (Merck KGaA, Darmstadt, Germany). A mixture of butanol:acetone:acetic acid:H2O (35/35/7/23 (v/v/v/v)) was used as mobile phase. For detection of the separated substances, the TLC plate was soaked with thymol reagent (0.5 g thymol solved in 95 ml ethanol, 5 ml sulfuric acid added) and heated.
In the entire screening, thirty two genes were identified to encode for α-2,3-sialyltransferases, thus producing 3′-SL. 19 enzymes synthesized 6′-SL and were depicted as α-2,6-sialyltransferases. An α-2,3- as well as an α-2,6-sialyltransferase activity could only be observed for 3 enzymes. […] The screening appeared highly accurate since the described activities of extensively characterized sialyltransferases, e. g. […] Regarding the product formation, the experimental setting allowed a semi-quantitative comparison of the screened enzymes. But to achieve deeper knowledge about their kinetic properties, the 3 potentially best performing α-2,3- and α-2,6-sialyltransferases were applied to in vitro assays.

Molecule | Relative efficacy of sialyltransferases regarding in-vitro production of sialyllacto-N-tetraoses: LST-a [1] | Described activity confirmed in the lactose screening [2] | Relative efficacy of sialyltransferases regarding in-vitro production of sialyllacto-N-tetraoses: LST-b [1] | other results
B1 | 605 |  |  | 
B2 | 654 |  |  | 
B3 | 2.98 × 10^3 | could be confirmed |  | Described activity to sialylate LNT verified ([1]; in words): could be verified; Production of sialyllactose in-vivo ([2]; 1.5 mM lactose, 72 to 96 hours, qualitative via TLC): 3′-SL
B4 |  |  | 1 | 
B5 | 2.25 × 10^3 |  |  | 
B6 |  | could be confirmed | 13 | 
